# Test results: US20120135472
# T1: small fragment of Nanoarchaeum equitans DNA polymerase (Neq S)
# T1 chain: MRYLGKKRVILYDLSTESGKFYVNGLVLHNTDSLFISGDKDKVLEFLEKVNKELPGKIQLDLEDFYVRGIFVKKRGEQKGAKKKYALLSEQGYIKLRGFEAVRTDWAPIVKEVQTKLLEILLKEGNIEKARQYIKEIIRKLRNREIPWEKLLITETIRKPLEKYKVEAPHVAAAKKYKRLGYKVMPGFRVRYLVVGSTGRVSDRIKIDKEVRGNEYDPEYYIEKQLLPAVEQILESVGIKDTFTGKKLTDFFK
# Target: T1, small fragment of Nanoarchaeum equitans …
protein,measurement,value
large fragment of Nanoarchaeum equitans DNA polymerase (Neq L) (protein) MLHQLPTMVVEEKAVKEEEGYSVLKCYWINIENTPLDEVILIGKDENNRACEVIIPYKWYFYFEGDIKDLEEFANNKKIKIEYTKEQKKYIEKPKDVYKVYVLHKHYPILKEFIKEKGYKKYETDINVYRKFLIDKGIEPFEWFEVEGKILLSTSNKVRIKAQSIKRLYEKTKPSVLAFDIEVYSEAFPNPEKDKIISIALYGDNYEGVISYKGEPTIKVNTEYELIEKFVEIIESLKPDIIVTYNGDNFDIDFLVKRASLYNIRLPIKLVNKKEPTYNFRESAHVDLYKTITTIYKTQLSTQTYSLNEVAKEILGEEKIYDYENMLYDWAIGNYNKVFEYNLKDAELTYKLFKYYENDLLELARLVNQPLFDVSRFSYSNIVEWYLIKKSRKYNEIVPNKPKMEEVERRKLNTYAGAFVYEPKPGLYENLAVLDFASLYPSIILEHNVSPGTIYCEHDDCKQNGVEAIINNEKKYVWFCKKVKGFIPTVLEHLYTKRLELKRKLKELDRDSEEYKIINAKQAVLKIIINATYGYMGFPNARWYCIDCAAAVAAWGRKYINYILKRAEEEGFKVIYGDSIMDTEIEVIENGIKKKEKLSDLFNKYYAGFQIGEKHYAFPPDLYVYDGERWVKVYSIIKHETETDLYEINGITLSANHLVLSKGNWVKAKEYENKNN,"activity of DNA polymerase (3H-dTTP incorporation, relative to 20 pmoles of Neq P = 100%)","The activity of DNA polymerase of the solution was very low after the protein trans-splicing of Neq L and Neq S at 60° C., but was maximized at 95 °C"
